The assay addresses SCCA1 recombinant protein expressed on transfected HepG2 and CHO cells (human).

Take “HBV viral particles present in the serum of patients with acute hepatitis B”: the HBV-DNA values of transfected cell lines relative to control cell lines is 8 times.

For the origin of these results see patent US6344362.
